Publication PMC5175334

B1: full-length wild-type TRBP (TRBP-WT), lentivirally expressed in HDLECs [human] / S6K2 (S6 kinase 2), endogenous [human (endogenous in HDLEC)] (parent)
chain 1: MSEEEQGSGTTTGCGLPSIEQMLAANPGKTPISLLQEYGTRIGKTPVYDLLKAEGQAHQPNFTFRVTVGDTSCTGQGPSKKAAKHKAAEVALKHLKGGSMLEPALEDSSSFSPLDSSLPEDIPVFTAAAAATPVPSVVLTRSPPMELQPPVSPQQSECNPVGALQELVVQKGWRLPEYTVTQESGPAHRKEFTMTCRVERFIEIGSGTSKKLAKRNAAAKMLLRVHTVPLDARDGNEVEPDDDHFSIGVGSRLDGLRNRGPGCTWDSLRNSVGEKILSLRSCSLGSLGALGPACCRVLSELSEEQAFHVSYLDIEELSLSGLCQCLVELSTQPATVCHGSATTREAARGEAARRALQYLKIMAGSK
chain 2: MAAVFDLDLETEEGSEGEGEPELSPADACPLAELRAAGLEPVGHYEEVELTETSVNVGPERIGPHCFELLRVLGKGGYGKVFQVRKVQGTNLGKIYAMKVLRKAKIVRNAKDTAHTRAERNILESVKHPFIVELAYAFQTGGKLYLILECLSGGELFTHLEREGIFLEDTACFYLAEITLALGHLHSQGIIYRDLKPENIMLSSQGHIKLTDFGLCKESIHEGAVTHTFCGTIEYMAPEILVRSGHNRAVDWWSLGALMYDMLTGSPPFTAENRKKTMDKIIRGKLALPPYLTPDARDLVKKFLKRNPSQRIGGGPGDAADVQRHPFFRHMNWDDLLAWRVDPPFRPCLQSEEDVSQFDTRFTRQTPVDSPDDTALSESANQAFLGFTYVAPSVLDSIKEGFSFQPKLRSPRRLNSSPRAPVSPLKFSPFEGFRPSPSLPEPTELPLPPLLPPPPPSTTAPLPIRPPSGTKKSKRGRGRPGR

Variants of: B1
Experiment: proximity ligation assay (PLA) in cells
Settings: with S6K2 (S6 kinase 2), HDLECs transduced with TRBP-AA lentivirus (600 ml/80 000 cells), endogenous TRBP also present, parent: 31, read off a plot

Variant	response (PLA events per HDLEC)
chain 1 S283A S286A	20

Same assay, conditions: with S6K2 (S6 kinase 2), HDLECs transduced with TRBP-DD lentivirus (200 ml/80 000 cells), endogenous TRBP also present, parent: 31, read off a plot

Variant	response (PLA events per HDLEC)
chain 1 S283D S286D	7

Variants of: B1
Experiment: co-immunoprecipitation, band quantification
Settings: with S6K2, lentivirally over-expressed in HEK293 cells; HEK293 cells over-expressing S6K2 and TRBP-WT or TRBP-DD; parent: 1; read off a plot

Variant	ratio to parent
chain 1 S283D S286D	0.16
